assay: soluble on expression in E. coli; label from the status in PepcDB or PDB records

Soluble on expression in E. coli, not soluble:
MGSDKIHHHHHHLRTNTVKVALVGCGRIAGHHARSIVATDGVQLAAVCDLAEDKALAYSNEFGVPSYTDYRRMLAEHPEISVVAVITPSGMHSEHGLEMMERFGKHIILEKPTMMRPEQLVHAWGVADRLNLSIFPVFQNRHNKAVTRVRQALAAGELGEIRIMSVRVRWCRPQRYYDLAPWRGTFSHDGGALTNQGIHHVDLLRHLGGEVDQVSATMRTLGADIEVEDTVVATMRYRSQAVGVLEVTTAARPDDFEASISIVGEKGLAQIGGIAVNELQVFTPDPAACAANSEDFKSFEGNGAVYGFGHSQMYRDIAAHFHQGKAYPVSREDCLGTLKLLHAFYRSDEAAGGWVDVDSPEQSTRLGRPDDAISNLYRTPLHG
MSRYGKNLVHYIIVEHDDQRGQKPIDDDDEKNFYYHCSFTFETFFRATAFLLAPAVCAVREVPCRLTRTRYNATEYIEGYGWMISLQQGLGVAEFYRPWPLSVQLQRYTTPSRRSRFAVLTPQRKCHQNEANGQDLSLLILLSRIYPLCSNTSQTRRVAARKGKLS
MNHMEILSFPAGPYQTNCYVVLSEESEGRRYASVIDPGLRAKELIDQYCEENRVEVVQVLLTHGHIDHCRDAAALANGWGVALQIHRYDEFFLDKGNGMSEDSRLLFHADAMNLPDSVSYLGDGDEVELGGQRFVVRHAPGHSPGCVLFVGKDFCFSGDVLFKGSIGRTDLAHSDPHAMSNSIKSVVLGLEDSLTILPGHGPATTMRAEKASNPYLRV
MDLSMTTPEEITQYLQDHPEFFEEHPDLLESLRFPHPYEGRVISINERQVAMLREKNKLLQNRLQELIDVGENNDAISEKMHRLTVALLGFGSLPELLHELQYHLCEDFSIPHVVLRLWQIDEFGTEADLPSPEFDPISNNVRILAQGMLRPYCGPEVDDEIRQWFAQDAEYLKSFAVIPLKKQSNFGLLVMASPEAERFYPDMGTLYLERLGDMVSSSIMRLIQQTPGAANRESAS
MAVRFIREDGDEILRKVSKKVDVIDERIKTLLDDMAETMYAANGVGLAAPQVGVLKRVVVIDVGDGLMELINPEIVEQEGEQIDIEGCLSIPGVAGEVKRPARVVVEALNREGEKITVEGKELLAVALCHEIDHLDGILFTDKVIRFIDEDEMERRRENKRRNKIRQNKG
MGSDKIHHHHHHMNELTNKLQQVMVPKAALIAYEYRENRYGNGMHYLELHPINDRGRMEAAMPVTYEFMDSLVESYTDDRRNVPHGKIPANMLWCDTRKGHERYIWYNPPGKRRMFFAGSLNIPDGTFHVPGVIYKVSGDRLDIFSYKGEKPAENSPLFLAPFFNVTGSSVCLGNAALTPPEDMTFSKLLEYWEKRFWLSEFSHLGGSRNPTGSNLVSVTEKARANPFDENELKPMSKQLKDLLA
GHHHHHHAIAENLYFQSTGNAGEWCLMESDPGVFTELIKGFGCRGAQVEEIWSLEPENFEKLKPVHGLIFLFKWQPGEEPAGSVVQDSRLDTIFFAKQVINNACATQAIVSVLLNCTHQDVHLGETLSEFKEFSQSFDAAMKGLALSNSDVIRQVHNSFARQQMFEFDTKTSAKEEDAFHFVSYVPVNGRLYELDGLREGPIDLGACNQDDWISAVRPVIEKRIQKYSEGEIRFNLMAIVSDRKMIYEQKIAELQRQLAEEPMDTDQGNSMLSAIQSEVAKNQMLIEEEVQKLKRYKIENIRRKHNYLPFIMELLKTLAEHQQLIPLVEKAKEKQNAKKAQETK
MAHHHHHHMSTYANSQARLNRVAPQLRPAGVHGDWTEATMAELLSSYNPNGIITPDHIRSFHHRGCDVGEQRRHWGLAKDAPVDPNMRHGVKGKETGGADACLRPEMYADKMTALLDAQLESQYLSNRRKPLGHAPVPRDPVPVPFGGFGITQKKGDSTQSVLAGYRSVDVLHPAGEQLTRNYDWEKAGIDPTQHRFGKPSARSDGTTAAALFNDSATQLTSKLAKDYETTVAKELGKSKRYGFDDPAEWDEEKRGSVTKFGATGTAASYFQTEQPTVRELLSSWAQTASGPRADKAASGKAGQQGLTGSADSAVTAKADASAAAPVASGPSLTEPLKDEARAHQLLYPCHYVSLGVESKYFAGGRPLEDIRRLCHKCSFGLSDADIDAVFVLVAKGGSTCSIEEFKNAARARGYM
MITPVSSFSIDDLLRGHSNEIQRILKLDQTSPTPQSSSDEGSEKSSISVMSVPLTNELTPTITPALSDQLWLAAAAFPIEHSLLLAQRNGVFPGFWSTADQIRLSNATKAYRRLRLECSRRKARTVFSDQQLQGLERRFESQRYLSTPERIELANALNLSETQVKTWFQNRRMKHKKVVRKDDNSVDDDNGNDNESE
MGHHHHHHSHMASETHNVKKRNFCNKIEDHFIDLPRKKISNFTNKNMKEVKKSPKQLAAYINRTVGQTVKSPDKLRKVIYRRKKVHHPFPNPCYRKKQSPGSGGCDMANKENELACAGHLPEKLHHDSRTYLVNSSDSGSSQTESPSSKYSGFFSEVSQDHETMAQVLFSRNMRLNVALTFWRKRSISELVAYLLRIEDLGVVVDCLPVLTNCLQEEKQYISLGCCVDLLPLVKSLLKSKFEEYVIVGLNWLQAVIKRWWSELSSKTEIINDGNIQILKQQLSGLWEQENHLTLVPGYTGNIAKDVDAYLLQLH
NILTDGAIKKLTLNKLFERYMSTRELKESTRANYLKTWENRVKDEIGNIKVIQILPSHIKSFYSKLSKAGYAYSTIKFINNMIYPALEMAVDDDIIRKNPAKFSISDYGRQAEERIALTVLQQEKMLEFVKNNQVYNTYYPMLRIMLGTGVRCGELIGLTWEDVDVRTKAVSIDHQLIYKDLGDGYKFHISTPKTDSGIRTIPMTSDVQRAFEEQKKLNFMLQKGKDVEIDGYKGFIFMAKSGRPLMPSAINNILYNIVDAYNKKEVQIAKTEHRNAELLPTVSAHIMRHTACTRMAEKRMDVKVLQYIMGHAHIDVTMDVYNHVSEMSRIESEITRLESVAIS

Soluble on expression in E. coli, soluble:
SSTIGSFEGFQAVSLKQEGDDQPSETDHLSMEEEDPMPRQISRQSSVTESTLYPNPYHQPYISRKYFATRPGAIETAMEDLKGHVAETSGETIQGFWLLTKIDHWNNEKERILLVTDKTLLICKYDFIMLSCVQLQRIPLSAVYRICLGKFTFPGMSLDKRQGEGLRIYWGSPEEQSLLSRWNPWSTEVPYATFTEHPMKYTSEKFLEICKLSGFMSKLVPAIQNAHKNSTGSGRGKKLMVLTEPILIETYTGLMSFIGNRNKLGYSLARGSIGF
MIIKDILRENQDFRFRDLSDLKHSPKLCIITCMDSRLIDLLERALGIGRGDAKVIKNAGNIVDDGVIRSAAVAIYALGDNEIIIVGHTDCGMARLDEDLIVSRMRELGVEEEVIENFSIDVLNPVGDEEENVIEGVKRLKSSPLIPESIGVHGLIIDINTGRLKPLYLDE
MQVSLPREDTVYIGGALWGPATTWNLYAPQSTWGTDQFMYLPAFQYDLGRDAWIPVIAERYEFVDDKTLRIYIRPEARWSDGVPITADDFVYALELTKELGIGPGGGWDTYIEYVKAVDTKVVEFKAKEENLNYFQFLSYSLGAQPMPKHVYERIRAQMNIKDWINDKPEEQVVSGPYKLYYYDPNIVVYQRVDDWWGKDIFGLPRPKYLAHVIYKDNPSASLAFERGDIDWNGLFIPSVWELWEKKGLPVGTWYKKEPYFIPDGVGFVYVNNTKPGLSDPAVRKAIAYAIPYNEMLKKAYFGYGSQAHPSMVIDLFEPYKQYIDYELAKKTFGTEDGRIPFDLDMANKILDEAGYKKGPDGVRVGPDGTKLGPYTISVPYGWTDWMMMCEMIAKNLRSIGIDVKTEFPDFSVWADRMTKGTFDLIISWSVGPSFDHPFNIYRFVLDKRLSKPVGEVTWAGDWERYDNDEVVELLDKAVSTLDPEVRKQAYFRIQQIIYRDMPSIPAFYTAHWYEYSTKYWINWPSEDNPAWFRPSPWHADAWPTLFIISKKSDPQPVPSWLGTVDEGGIEIPTAKIFEDLQKATMHHHHHH
MHHHHHHKSTKILILGAGPAGFSAAKAALGKCDDITMINSEKYLPYYRPRLNEIIAKNKSIDDILIKKNDWYEKNNIKVITSEFATSIDPNNKLVTLKSGEKIKYEKLIIASGSIANKIKVPHADEIFSLYSYDDALKIKDECKNKGKAFIIGGGILGIELAQAIIDSGTPASIGIILEYPLERQLDRDGGLFLKDKLDRLGIKIYTNSNFEEMGDLIRSSCVITAVGVKPNLDFIKDTEIASKRGILVNDHMETSIKDIYACGDVAEFYGKNPGLINIANKQGEVAGLNACGEDASYSEIIPSPILKVSGISIISCGDIENNKPSKVFRSTQEDKYIVCMLKENKIDAAAVIGDVSLGTKLKKAIDSSKSFDNISSLDAILNNL
MGHHHHHHSHMEKALLGACDCTQIVKPSGVHLKLVLRFSDFGKAMFKPMRQQRDEETPVDFFYFIDFQRHNAEIAAFHLDRILDFRRVPPTVGRIVNVTKEILEVTKNEILQSVFFVSPASNVCFFAKCPYMCKTEYAVCGNPHLLEGSLSAFLPSLNLAPRLSVPNPWIRSYTLAGKEEWEVNPLYCDTVKQIYPYNNSQRLLNVIDMAIFDFLIGNMDRHHYEMFTKFGDDGFLIHLDNARGFGRHSHDEISILSPLSQCCMIKKKTLLHLQLLAQADYRLSDVMRESLLEDQLSPVLTEPHLLALDRRLQTILRTVEGCIVAHGQQSVIV
MSLKITRIEAIPYAIPYSRPLKFASGEVSTAEHVLVRIHTDAGICGVADTPPRPYTYGETQDSIVSVVTKVFAPQLIGMDPMDRSKVQQLLGRTVNNPTAKGALDIALWDVIGISLGTPVHKLLGGFSDSMRVSHMLGFKAAAELLEEALRFRETYGIDTFKLKVGRRPLSLDVEACHVLREGLGADTEIYLDANRGWTANEAMEVLRRTEGLGLSMLEEPCDAAEAMGRRRLVQHSSIPIVGDESVPNLGDVSRELLSGGSNAICIKTARSGFTEAQQILGLCEGLGVDVTMGNQIDTQVGSLATVTFGAAFEASSRRAGELSNYLDMTDDLLAEPLEITDGAIRVRKAPGVGAAIDADKLQKYREGHHHHHH
MAQTDKPTCIPPELPKMLKEFAKAAIRVQPQDLIQWAADYFEALSRGETPPVRERSERVALCNRAELTPELLKILHSQVAGRLIIRAEELAQMWKVVNLPTDLFNSVMNVGRFTEEIEWLKFLALACSALGVTITKTLKIVCEVLSCDHNGGSPRIPFSTFQFLYTYIAKVDGEISASHVSRMLNYMEQEVIGPDGIITVNDFTQNPRVQLE
EETAKEVMTSRLDMVDLEINTPYSDVLKCIVENAYSRIPVYAESRDNIKGILYIKDLLPHLGKGDNFRWQTLVRPAYFVPETKMIDDLLRDFQANKIHIAIVVDEFGGTSGIVTMEDIIEEIVGEINDEYDD
SGQKASQQVAPKDSQEVLAMCEVVSAAISHAAQKLKEYLGFEYPLSRLCLAASSLTEVFLVHFVTFCQERGADEWLTTTKMTKHQAWLFGADWIWTFWGPDKEIRLQVAVQTLRMASLPLTDPKSCESRGEESWKKGRFDKLQEFCNLVGEDCLGLFIIFGVPGEPKAIRGVVLESVRNGMMESQLPGRKAVEQFVLETKDCVSIKELLGNCLSKRDGLSDMGRVYIRIL
MNYMELYDVDEFWKFQMKVGLVKKAEKIKRTKKLIKLIVDFGNEERTIVTGIADQIPPEELEGKKFIFVVNLKPKKFSGVESQGMLILAETEDGKVYLIPVPEEVPVGARVW
MRGSHHHHHHTDPALRAQTQVLFEHPLNEKMRTWLRIEFLIQQLTVNLPIVDHAGALHFFRNVSELLDVFERGEVRTELLKELDRQQRKLQTWIGVPGVDQSRIEALIQQLKAAGSVLISAPRIGQFLREDRLIALVRQRLSIPGGCCSFDLPTLHIWLHLPQAQRDSQVETWIASLNPLTQALTMVLDLIRQSAPFRKQTSLNGFYQDNGGDADLLRLNLSLDSQLYPQISGHKSRFAIRFMPLDTENGQVPERLDFELACCGLCGR

Source: the DeepSol protein solubility set
